Results: patent publication US20210032365A1 (Chugai, published 2021)
Positions count from the first letter of the chain named. Names may count otherwise.

T1: human C1s (human, UniProt P09871 16-688)
T1 construct: also called hC1s; serum-derived human C1s (CompTech)
T1 sequence: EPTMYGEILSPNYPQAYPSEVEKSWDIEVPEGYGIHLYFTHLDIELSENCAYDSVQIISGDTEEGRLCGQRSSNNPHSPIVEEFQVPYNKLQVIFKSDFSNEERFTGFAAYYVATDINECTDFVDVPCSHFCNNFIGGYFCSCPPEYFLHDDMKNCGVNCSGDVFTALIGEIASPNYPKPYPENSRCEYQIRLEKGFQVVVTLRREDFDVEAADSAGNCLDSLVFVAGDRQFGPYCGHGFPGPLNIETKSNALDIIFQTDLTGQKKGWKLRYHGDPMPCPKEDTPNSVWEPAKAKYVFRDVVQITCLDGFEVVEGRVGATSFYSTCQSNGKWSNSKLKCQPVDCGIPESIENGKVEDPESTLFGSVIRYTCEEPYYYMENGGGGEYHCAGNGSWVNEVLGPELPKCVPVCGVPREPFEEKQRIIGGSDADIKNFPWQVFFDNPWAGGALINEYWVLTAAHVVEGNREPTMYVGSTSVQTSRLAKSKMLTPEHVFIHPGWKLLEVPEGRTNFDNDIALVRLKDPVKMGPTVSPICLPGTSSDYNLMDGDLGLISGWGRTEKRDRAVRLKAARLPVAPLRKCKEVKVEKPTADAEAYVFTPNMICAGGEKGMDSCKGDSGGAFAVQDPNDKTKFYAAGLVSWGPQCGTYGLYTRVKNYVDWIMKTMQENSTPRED

T2: human C1s (human, UniProt P09871 16-688)
T2 construct: Analyte in the Biacore assays; also called hC1s; serum-derived human C1s (CompTech)
T2 sequence: T1 sequence

B1: C1_IPN92H0286-SG4GK/IPN93L0205-SK1 (antibody, human IgG4 S228P, kappa, name in Kabat numbering)
heavy: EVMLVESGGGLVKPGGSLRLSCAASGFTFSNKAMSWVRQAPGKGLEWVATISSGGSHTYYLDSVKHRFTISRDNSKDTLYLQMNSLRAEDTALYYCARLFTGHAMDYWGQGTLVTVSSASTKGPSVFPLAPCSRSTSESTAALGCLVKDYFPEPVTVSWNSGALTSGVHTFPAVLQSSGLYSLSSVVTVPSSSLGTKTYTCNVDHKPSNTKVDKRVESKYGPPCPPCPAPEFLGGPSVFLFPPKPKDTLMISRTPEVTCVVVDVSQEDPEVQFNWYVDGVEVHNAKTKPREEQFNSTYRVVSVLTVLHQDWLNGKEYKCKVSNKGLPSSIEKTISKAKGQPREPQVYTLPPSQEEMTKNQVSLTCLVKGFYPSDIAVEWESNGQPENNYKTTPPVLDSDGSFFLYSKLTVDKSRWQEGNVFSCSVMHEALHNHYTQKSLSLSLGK
light: QIVLTQSPATLSLSPGERATLSCTASSSVSSSRLHWYQQKPGKAPKLWIYSTSNLASGVPSRFSGSGSGTDYTLTISSLQPEDFATYYCHQYHRHPPITFGQGTKLEIKRTVAAPSVFIFPPSDEQLKSGTASVVCLLNNFYPREAKVQWKVDNALQSGNSQESVTEQDSKDSTYSLSSTLTLSKADYEKHKVYACEVTHQGLSSPVTKSFNRGEC
notes: also called IPN92H0286/IPN93L0205
B2: C1_IPN92H0288-SG4GK/IPN93L0212-SK1 (antibody, human IgG4 S228P, kappa, name in Kabat numbering, V domains shown)
VH: EVMLVESGGGLVKPGGSLRLSCAASGFTFSNYAMSWVRQAPGKGLEWVATISSGGSHTYELDSVDGRFTISRDNSKDTLYLQMNSLRAEDTALYYCARLFTKHAMDYWGQGTLVTVSS
VL: QIVLTQSPATLSLSPGERATLSCTASSEVSESRLHWYQQKPGKAPKLWIYSTSNLASGVPSRFSGSGSGTDYTLTISSLQPEDFATYYCHQYYRLHPITFGQGTKLEIKR
notes: VH = IPN009VH2 with Y59E/K64D/G98K/Y99H (Kabat); also called IPN92H0288/IPN93L0212
B3: C1_IPN92H0033-SG4GK/IPN93L0024-SK1 (antibody, human IgG4 S228P, kappa)
heavy: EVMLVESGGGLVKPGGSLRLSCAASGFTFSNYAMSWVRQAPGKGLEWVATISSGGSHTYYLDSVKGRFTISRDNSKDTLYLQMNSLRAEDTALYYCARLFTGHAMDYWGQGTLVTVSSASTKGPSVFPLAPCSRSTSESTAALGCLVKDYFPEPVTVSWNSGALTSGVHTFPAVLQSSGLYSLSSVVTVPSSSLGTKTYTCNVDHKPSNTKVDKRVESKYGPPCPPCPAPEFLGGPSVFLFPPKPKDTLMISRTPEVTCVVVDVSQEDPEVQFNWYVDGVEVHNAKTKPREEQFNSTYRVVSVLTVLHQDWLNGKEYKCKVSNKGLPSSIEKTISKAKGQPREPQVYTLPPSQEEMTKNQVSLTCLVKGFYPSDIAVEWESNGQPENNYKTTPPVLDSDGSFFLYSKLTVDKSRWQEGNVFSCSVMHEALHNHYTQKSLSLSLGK
light: B1 light with R33Y, H93Y, H95L, P96H
notes: VH Y99H, VL P95H against the parent (Kabat); also called IPN92H0033/IPN93L0024
B4: C1_IPN92H0033-SG4GK/IPN93L0072-SK1 (antibody, human IgG4 S228P, kappa, name in Kabat numbering, V domains shown)
VH: B2 VH with E60Y, D65K, K102G
VL: B2 VL with E28S, S30K, E31S, R33Y
notes: VL substitutions from IPN009VK3, Kabat numbering; also called IPN92H0033/IPN93L0072
B5: C1_IPN92H0033-SG4GK/IPN93L0090-SK1 (antibody, human IgG4 S228P, kappa, name in Kabat numbering, V domains shown)
VH: B2 VH with E60Y, D65K, K102G
VL: B2 VL with E28S, E31S, R33K
notes: VL substitutions from IPN009VK3, Kabat numbering; also called IPN92H0033/IPN93L0090
B6: C1_IPN92H0061-SG4GK/IPN93L0024-SK1 (antibody, human IgG4 S228P, kappa, name in Kabat numbering, V domains shown)
VH: B2 VH with F29K, E60Y, D65K, K102G
VL: B2 VL with E28S, E31S, R33Y
notes: Substitutions from IPN009VH2, Kabat numbering; also called IPN92H0061/IPN93L0024
B7: C1_IPN92H0079-SG4GK/IPN93L0024-SK1 (antibody, human IgG4 S228P, kappa, name in Kabat numbering, V domains shown)
VH: B2 VH with Y32K, E60Y, D65K, K102G
VL: B2 VL with E28S, E31S, R33Y
notes: Substitutions from IPN009VH2, Kabat numbering; also called IPN92H0079/IPN93L0024
B8: C1_IPN92H0080-SG4GK/IPN93L0024-SK1 (antibody, human IgG4 S228P, kappa, name in Kabat numbering, V domains shown)
VH: B2 VH with Y32R, E60Y, D65K, K102G
VL: B2 VL with E28S, E31S, R33Y
notes: Substitutions from IPN009VH2, Kabat numbering; also called IPN92H0080/IPN93L0024

How the values were obtained:
human C1s [1] = target: T1, human C1s; assay: SPR, Ab captured; pH 7.4, 1.2 mM Ca
Experimental: (§1) Each antibody was captured onto the sensor surface by protein A/G. Antibody capture levels were aimed at 200 resonance unit (RU). Serum-derived human C1s (CompTech) or recombinant C1s prepared in EXAMPLE 1 was injected at 50 nM, followed by dissociation. The sensor surface was regenerated in each cycle with 10 mM Glycine-HCl, pH 1.5. […] The ratio of KD 5.8+ to KD 7.4+(“KD 5+/7+”) and that of KD 5.8− to KD 7.4+(“KD 5−/7+”) were calculated. When the KD 5+/7+ or KD 5−/7+ of a variant is larger than that of the parent antibody IPN009VH2-SG4GK/IPN009VK3-SK1, that variant is considered to be “pH”- or “pH and Ca”-dependent, respectively. When binding response in 5(+) buffer and/or in 5(−) buffer of a variant is much lower than that of IPN09VH2/IPN009VK3, that variant is also considered as “pH”- and/or “pH and Ca”-dependent. Therefore, such mutations are effective to generate “pH”- and/or “pH and Ca”-dependent antibody. To further enhance “pH” and/or “pH and Ca” dependency, a combination of histidine mutations was conducted. Antibodies with combinations of histidine mutations were evaluated using Biacore by the method described above.
(§2) C1_1IPN92H0033 (SEQ ID NO: 17)-SG4GK/IPN93L0024 (SEQ ID NO: 18)-SK1 (IPN92H0033/IPN93L0024) was selected for further optimization. Histidine, Lysine, Arginine, aspartic acid, glutamic acid, and glutamine scanning was conducted for CDRs and certain positions of FRs of IPN92H0033/IPN93L0024. Variants with a mutation were generated and purified, and evaluated using Biacore by the method mentioned above. All variants were evaluated using Biacore as mentioned above. Mutations that improved “pH” and/or “pH and Ca” dependency were selected for the combination.

human C1s [2] = target: T2, human C1s; assay: SPR; KD at pH 5.8 (1.2 mM Ca) over KD at pH 7.4 (1.2 mM Ca)
Experimental: as §1, §2

human C1s [3] = target: T2, human C1s; assay: SPR; KD at pH 5.8 (3 uM Ca) over KD at pH 7.4 (1.2 mM Ca)
Experimental: as §1, §2

human C1s [4] = target: T2, human C1s; assay: SPR (Biacore T200, 37C), Ab captured on protein A/G; pH 5.8, 1.2 mM Ca
Experimental: as §1, §2

human C1s [5] = target: T2, human C1s; assay: SPR (Biacore T200, 37C), Ab captured on protein A/G; pH 5.8, 3 uM Ca
Experimental: as §1, §2

Row | Binder | Kd (human C1s [1]) [nM] | koff (human C1s [1]) [s⁻¹] | kon (human C1s [1]) [M⁻¹ s⁻¹] | KD 5(+)/7(+) (human C1s [2]) | KD 5(-)/7(+) (human C1s [3]) | koff (human C1s [4]) [s⁻¹] | kon (human C1s [4]) [M⁻¹ s⁻¹] | Kd (human C1s [5]) [nM] | koff (human C1s [5]) [s⁻¹] | kon (human C1s [5]) [M⁻¹ s⁻¹] | Kd (human C1s [4]) [nM]
1 | B1 | 1.58 | 0.00156 | 984000 | – | – | – | – | – | – | – | –
2 | B2 | 1.81 | 0.00117 | 648000 | – | – | – | – | – | – | – | –
3 | B3 | – | – | – | 3 | 1.83 | 0.0045 | 519000 | – | – | – | –
4 | B4 | – | – | – | 6.7 | 4.18 | 0.00529 | 530000 | 5.72 | 0.00553 | 967000 | 9.12
5 | B5 | – | – | – | 6.8 | 5.13 | 0.0055 | 577000 | 7.18 | 0.00427 | 595000 | 9.52
6 | B6 | – | – | – | 1.7 | 0.79 | 0.022 | 1.85e+06 | 5.43 | 0.00344 | 633000 | 11.9
7 | B7 | – | – | – | 5.7 | 2.6 | 0.0162 | 838000 | 8.75 | 0.0052 | 594000 | 19.3
8 | B8 | – | – | – | 5 | 2.86 | 0.0129 | 814000 | 9.09 | 0.00651 | 717000 | 15.9
